The values below come from publication PMC11249846 (Protein Science : A Publication of the Protein Society, 2024).

The target in the assay is Hsc70‐T204A (human, UniProt P11142 1-646, T204A). Kind of assay: NMR titration.
Chain of Hsc70‐T204A (P11142 whole entry T204A): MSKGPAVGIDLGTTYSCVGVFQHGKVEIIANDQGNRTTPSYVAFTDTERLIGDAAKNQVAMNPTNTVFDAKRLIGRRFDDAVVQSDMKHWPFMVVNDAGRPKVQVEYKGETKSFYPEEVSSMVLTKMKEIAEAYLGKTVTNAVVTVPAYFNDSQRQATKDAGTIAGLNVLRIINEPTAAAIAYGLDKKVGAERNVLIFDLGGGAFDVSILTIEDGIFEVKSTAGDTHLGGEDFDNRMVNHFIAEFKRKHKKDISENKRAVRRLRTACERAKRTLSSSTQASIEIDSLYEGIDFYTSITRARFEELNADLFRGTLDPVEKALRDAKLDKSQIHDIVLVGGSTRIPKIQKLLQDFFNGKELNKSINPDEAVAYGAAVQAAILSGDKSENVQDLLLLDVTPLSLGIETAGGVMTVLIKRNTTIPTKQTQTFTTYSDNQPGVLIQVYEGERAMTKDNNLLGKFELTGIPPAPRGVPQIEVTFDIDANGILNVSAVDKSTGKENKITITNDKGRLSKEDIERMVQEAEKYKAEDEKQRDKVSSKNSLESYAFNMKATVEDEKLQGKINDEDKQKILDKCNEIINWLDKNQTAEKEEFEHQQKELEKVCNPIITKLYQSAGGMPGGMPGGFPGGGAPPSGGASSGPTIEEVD

B1: wt (JD‐G/FR) (domain or fragment)
chain: not shown
Regarding B1, the binding result is “binds”.
